Measured values from US20150299764A1, “IMMOBILISED CYCLIN-DEPENDENT KINASE 4 FUSION PROTEINS AND USES THEREOF” (UNIVERSITE LIBRE DE BRUXELLES, priority 2012, published 2015).

Tests used:
[1] = target: biotinylated Avi-tagged luciferase/EGFP fusion (pWFAvi_IBc_luc) [luciferase: P08659]; assay: pull-down from HEK293T extract on streptavidin-coated sepharose beads; bound luciferase activity relative to bound plus unbound
[2] = test system: MCF7 cells; assay: BrdU incorporation (DNA synthesis) in quiescent MCF7 cells; format: cell-based; settings: fulvestrant 10 nM during the last 24 h of the incubation without serum and insulin, results not shown
Procedure: MCF7 cells (ATCC HTB-22) were routinely cultivated in Dulbecco's Modified Eagle Medium (DMEM) comprising 5% serum, 6 ng/ml insulin, 0.1 mM non essential amino acids (NEAA, GIBCO), 1 mM Sodium pyruvate, 50 U/ml Penicillin and 50 μg/ml Streptomycin. The cells were rendered quiescent by incubating them for three days in phenol-free DMEM without serum and insulin, but supplemented with 0.1 mM NEAA (GIBCO), 1 mM Sodium pyruvate, 50 U/ml Penicillin and 50 μg/ml Streptomycin. Cells were kept quiescent (control) or were stimulated to proliferate by adding 5% serum and 6 ng/ml insulin in the culture medium. Samples were harvested 2 h, 4 h, 6 h, 8 h, 10 h, 12 h, 16 h, and 24 h after stimulation of MCF7 cells. Bromodeoxyuridine (BrdU, 10^−4 M) and fluorodeoxyuridine (2.10^−6 M) were added to the cells for the last 24 h of culture. BrdU staining was used to record DNA synthesis. […] DNA synthesis resumed 16 h after stimulation by serum and insulin (FIG. 5, dashed line).
When fulvestrant (10 nM) was added to the culture to block estrogen receptor action during the last 24 h of the incubation without serum and insulin, the proportion of cells starting DNA synthesis dropped to less than 2% (results not shown).

Row | percent of the total luciferase activity bound [1] [%] | Molecule | proportion of cells starting DNA synthesis [2]
1 | < 40 | streptavidin (from UniProt P22629 37-163) | –
2 | – | C[C@]12CC[C@@H]3c4ccc(O)cc4C[C@@H](CCCCCCCCC[S+]([O-])CCCC(F)(F)C(F)(F)F)[C@H]3[C@@H]1CC[C@@H]2O (some centres unmarked) [fulvestrant] | less than 2%
